From paper PMC4558366 (Cell reports, 2015) come the findings set out here.

In the experiment the target is T1, UHRF1_(647-687) (human, UniProt Q96T88-2 647-687).
T1 chain (looked up): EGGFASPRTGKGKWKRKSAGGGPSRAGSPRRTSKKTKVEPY
As to the kind of experiment: ITC. On the technique in general: In ITC the heat of successive injections is recorded.

B1: USP7 UBL1-2 E736A (domain or fragment)
chain: EAHLYMQVQIVAEDQFCGHQGNDMYDEEKVKYTVFKVLKNSSLAEFVQSLSQTMGFPQDQIRLWPMQARSNGTKRPAMLDNEADGNKTMIELSDNENPWTIFLETVDPELAASGATLPKFDKDHDVMLFLKMYDPKTRSLNYCGHIYTPISCKIRDLLPVMCDRAGFIQDTSLILYAEVKPNLTERIQDYDVSLDKALDELMDGDIIVFQKDDPENDNSELPTAKEYFRDLYH
Consider B1, for which the “fold reduction of binding affinity against wild type” value was found to be 4 fold.
